Experimental data: patent publication US20250092426, “CAS ENDONUCLEASES AND RELATED METHODS” (Flagship Pioneering Innovations VII, LLC, published 2025)

Biological target: T1, CasEnd-28 (synthetic construct)
T1 chain: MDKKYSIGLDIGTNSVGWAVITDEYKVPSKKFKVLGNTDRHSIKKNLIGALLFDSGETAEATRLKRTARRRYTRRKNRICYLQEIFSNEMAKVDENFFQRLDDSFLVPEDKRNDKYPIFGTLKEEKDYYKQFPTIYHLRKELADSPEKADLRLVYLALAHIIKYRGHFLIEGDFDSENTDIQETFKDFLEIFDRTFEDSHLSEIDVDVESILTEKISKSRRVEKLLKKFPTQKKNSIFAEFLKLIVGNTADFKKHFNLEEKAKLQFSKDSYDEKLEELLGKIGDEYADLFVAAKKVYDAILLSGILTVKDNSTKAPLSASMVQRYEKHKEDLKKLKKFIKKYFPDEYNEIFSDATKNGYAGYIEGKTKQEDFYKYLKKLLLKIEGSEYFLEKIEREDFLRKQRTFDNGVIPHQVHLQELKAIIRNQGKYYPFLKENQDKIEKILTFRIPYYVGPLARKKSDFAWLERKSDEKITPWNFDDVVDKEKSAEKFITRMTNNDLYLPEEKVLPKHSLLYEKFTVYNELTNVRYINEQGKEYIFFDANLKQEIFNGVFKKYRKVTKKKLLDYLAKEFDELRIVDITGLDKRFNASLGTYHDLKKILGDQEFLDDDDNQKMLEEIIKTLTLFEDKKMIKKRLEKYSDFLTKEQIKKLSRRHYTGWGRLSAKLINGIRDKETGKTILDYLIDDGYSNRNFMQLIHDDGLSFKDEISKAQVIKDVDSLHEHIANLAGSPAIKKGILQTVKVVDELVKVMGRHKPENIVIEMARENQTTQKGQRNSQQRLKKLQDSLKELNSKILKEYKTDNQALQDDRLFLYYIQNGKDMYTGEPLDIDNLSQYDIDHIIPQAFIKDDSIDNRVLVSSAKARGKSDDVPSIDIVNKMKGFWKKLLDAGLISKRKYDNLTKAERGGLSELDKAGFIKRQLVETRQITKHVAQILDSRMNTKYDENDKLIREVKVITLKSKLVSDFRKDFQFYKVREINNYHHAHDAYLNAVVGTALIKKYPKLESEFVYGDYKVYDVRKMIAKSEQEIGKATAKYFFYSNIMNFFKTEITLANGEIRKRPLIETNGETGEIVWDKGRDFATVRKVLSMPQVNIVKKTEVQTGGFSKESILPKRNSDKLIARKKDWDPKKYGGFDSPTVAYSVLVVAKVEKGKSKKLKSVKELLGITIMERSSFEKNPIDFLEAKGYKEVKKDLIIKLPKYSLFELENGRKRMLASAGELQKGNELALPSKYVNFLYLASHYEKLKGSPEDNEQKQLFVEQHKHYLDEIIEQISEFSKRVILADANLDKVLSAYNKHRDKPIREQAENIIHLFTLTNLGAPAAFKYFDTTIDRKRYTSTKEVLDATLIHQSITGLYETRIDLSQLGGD
Experiment: cell_activity; +++; K562, second nick guide SEQ 380; PAM not stated
Procedure: The ability of the candidate endonucleases, including endonucleases 1-38 (CasEnds 1-38) (set forth in Table 1 and SEQ ID NOS: 1-38, respectively), to mediate target nucleic acid editing in cells was assessed by amplicon sequencing of the endogenous hemoglobin subunit beta (eHBB) gene, wherein the percent of amplicons displaying the intended edit is measured. The editing system is comprised of a template RNA (designed to introduce the Single Nucleotide Polymorphism), a second nick guide RNA, and a fusion protein consisting of retroviral reverse transcriptase and the individual subject Cas endonuclease.
Briefly, 250 ng of plasmid DNA encoding the subject fusion protein (containing one of the subject CasEnds), 250 ng each of plasmid DNA encoding the template RNA and the second nick guide RNA were added to 15 μL Lonza SF buffer containing 250,000 K562 cells. Nucleofection was mediated utilizing program FF-120-DA on a Lonza nucleofector. The day of nucleofection was marked as day 0. At day 3, the cells were harvested and subjected to lysis buffer treatment overnight. Genomic DNA was extracted and used for targeted amplicon sequencing to evaluate the performance of each Cas endonucleases based on their percent edit efficiencies.

B1: HBB template RNA ; HBB protospacer (ssRNA ; dsDNA)
RNA: CAUGGUGCACCUGACUCCUGGUUUUAGAGCUAGAAAUAGCAAGUUAAAAUAAGGCUAGUCCGUUAUCAACUUGAAAAAGUGGCACCGAGUCGGUGCACGGCAGACUUCUCUGCCGGAGUCAGGUGC
DNA 1: CATGGTGCACCTGACTCCTG
DNA 2: CAGGAGTCAGGTGCACCATG
activity: ≥ 100 % of reference
